The values that follow come from US20230374157A1 (SYSTIMMUNE, published 2023).

For assay [1], the target named is T1, His-tagged human EGFR extracellular domain (expressed and purified in-house) (human, UniProt P00533 25-645).
T1 construct: extracellular domain; Monomeric, in solution; also called EGFR (purified in-house); not shown: His tag
Nature of the assay: BLI, antibody on AHC tips, monomeric EGFR ECD in solution, 1:1 fit. On the technique in general: Biolayer interferometry detects binding as a change in optical thickness at a sensor tip.

Assay [2] concerns the target T2, human His-tagged HER3 extracellular domain (in-house expressed) (human, UniProt P21860 20-643).
T2 construct: extracellular domain; also called HER3 ECD (in-house expressed); not shown: His tag
The assay is described as follows: BLI sandwich assay, antibody held on immobilized biotinylated EGFR, 500 nM HER3 ECD in solution, 1:1 fit.

Assay [3] concerns the target T3, His-tagged human HER3 extracellular domain (Acro ER3-H5223) (human, UniProt P21860 20-643).
T3 construct: extracellular domain; Monomeric, in solution; not shown: His tag
Nature of the assay: BLI, antibody on AHC tips, monomeric HER3 ECD in solution, 1:1 fit.

In assay [4] the target is T4, biotinylated human EGFR extracellular domain (Acro EGF-H82E3) (human, UniProt P00533 25-645, biotinylated (site not stated)).
T4 construct: extracellular domain; Loaded onto streptavidin (SA) sensors; also called immobilized EGFR
The assay is described as follows: BLI avidity format, biotinylated EGFR ECD on SA sensors, antibody in solution, 1:1 fit.

The target of assay [5] is T2, human His-tagged HER3 extracellular …. Nature of the assay: BLI sandwich assay, antibody held on immobilized EGFR, HER3 ECD in solution.
For assay [6], the target named is T3, His-tagged human HER3 extracellular …. Nature of the assay: BLI (Octet), antibody captured on AHC sensors; tandem: 100 nM EGFR 720 s, then 100 nM EGFR + 400 nM HER3 720 s, then buffer; EGFR+HER3 step.

B1: SI-1C5 (nimotuzumab-based anti-EGFR monoclonal antibody) (antibody, V domains shown)
VH: QVQLQQSGAEVKKPGSSVKVSCKASGYTFTNYYIYWVRQAPGQGLEWIGGINPTSGGSNFNEKFKTRVTITVDESTNTAYMELSSLRSEDTAFYFCARQGLWFDSDGRGFDFWGQGSTVTVSS
VL: DIQMTQSPSSLSASVGDRVTITCRSSQNIVHSNGNTYLDWYQQTPGKAPKLLIYKVSNRFSGVPSRFSGSGSGTDFTFTISSLQPEDIATYYCFQYSHVPWTFGQGTKLQITR
As to B1, in assay [1], the Kd turned out to be 15.8 nM; the koff (usually a measure of how fast the partners let go of each other) came out at 0.00178 s⁻¹; the kon – broadly, the second-order rate constant of association – worked out at 113000 M⁻¹ s⁻¹.

B2: SI-71X14, bispecific tetravalent anti-EGFR x HER3 antibody (humanized cetuximab IgG with MM-111 anti-HER3 scFv at the C-terminus of each heavy chain) (bispecific antibody)
heavy: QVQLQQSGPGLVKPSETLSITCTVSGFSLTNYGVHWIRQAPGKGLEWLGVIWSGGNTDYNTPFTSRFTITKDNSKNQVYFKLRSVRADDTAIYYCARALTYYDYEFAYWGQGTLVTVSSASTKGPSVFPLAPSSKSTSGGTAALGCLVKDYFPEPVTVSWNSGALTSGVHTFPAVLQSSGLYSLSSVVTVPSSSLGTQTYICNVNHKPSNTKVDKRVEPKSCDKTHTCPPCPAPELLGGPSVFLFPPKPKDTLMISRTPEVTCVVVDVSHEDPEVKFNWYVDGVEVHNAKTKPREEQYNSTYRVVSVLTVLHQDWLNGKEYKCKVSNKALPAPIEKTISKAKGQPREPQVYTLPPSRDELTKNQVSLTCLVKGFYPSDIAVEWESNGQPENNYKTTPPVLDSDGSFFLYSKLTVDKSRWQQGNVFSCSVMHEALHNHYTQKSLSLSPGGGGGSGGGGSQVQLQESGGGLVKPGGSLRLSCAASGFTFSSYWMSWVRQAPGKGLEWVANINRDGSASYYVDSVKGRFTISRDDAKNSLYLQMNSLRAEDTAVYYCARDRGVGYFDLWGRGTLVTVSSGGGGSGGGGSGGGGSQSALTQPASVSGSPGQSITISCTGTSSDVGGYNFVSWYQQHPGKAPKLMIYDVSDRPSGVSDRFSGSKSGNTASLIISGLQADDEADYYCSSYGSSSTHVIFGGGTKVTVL
light: EIVLTQSPSTLSVSPGERATFSCRASQSIGTNIHWYQQKPGKPPRLLIKYASESISGIPDRFSGSGSGTEFTLTISSVQSEDFAVYYCQQNNNWPTTFGPGTKLTVLRTVAAPSVFIFPPSDEQLKSGTASVVCLLNNFYPREAKVQWKVDNALQSGNSQESVTEQDSKDSTYSLSSTLTLSKADYEKHKVYACEVTHQGLSSPVTKSFNRGEC
notes: VH position 85 (Kabat) is D instead of cetuximab's N
As to B2, the Kd in assay [2] was 922 nM; in assay [1], 4.61 nM; in assay [3], 117 nM; in assay [4], below 0.001 nM. The dissociation rate constant (koff) is 0.07 s⁻¹ in assay [2], 0.00122 s⁻¹ in assay [1], 0.0308 s⁻¹ in assay [3] and below 1e-07 s⁻¹ in assay [4]. In addition, the kon in assay [2] stood at 75900 M⁻¹ s⁻¹; in assay [1] it was 264000 M⁻¹ s⁻¹; in assay [3], 265000 M⁻¹ s⁻¹; in assay [4], 353000 M⁻¹ s⁻¹.

B3: SI-71M1, humanized cetuximab monoclonal antibody (antibody, human IgG1, kappa, V domains shown)
VH: QVQLQQSGPGLVKPSETLSITCTVSGFSLTNYGVHWIRQAPGKGLEWLGVIWSGGNTDYNTPFTSRFTITKDNSKNQVYFKLRSVRADDTAIYYCARALTYYDYEFAYWGQGTLVTVSS
VL: EIVLTQSPSTLSVSPGERATFSCRASQSIGTNIHWYQQKPGKPPRLLIKYASESISGIPDRFSGSGSGTEFTLTISSVQSEDFAVYYCQQNNNWPTTFGPGTKLTVLR
notes: also called Hu-Cetuximab; humanized cetuximab mAb
In the case of B3, the binding result is listed as “no binding (tested: 500 nM)” in assay [5] and “no binding (tested: 400 nM)” in assay [6]. In addition, the Kd was 4.76 nM in assay [1] and below 0.001 nM in assay [4]. For the same molecule, the values for the koff in assay [1] and in assay [4] were 0.0013 s⁻¹ and below 1e-07 s⁻¹, respectively. The results for the kon in assay [1] and in assay [4] were 272000 M⁻¹ s⁻¹ and 466000 M⁻¹ s⁻¹, respectively.
